{"source": "the DeepSol protein solubility set"}
{"experiment": "soluble on expression in E. coli; label from the status in PepcDB or PDB records"}
{"sequence": "MGSDKIHHHHHHMLEHGGNLHVASQQYGIAREYWLDLSTGINPQGYPVPEIPASAWHRLPEADPPLERIAASYYGAQRLLVTAGSQAAIQALPRLRQPCRVTVLGPMYAEHAHAWRQQGHQVSEIDYLPSAAMLAETDVLLVCNPNNPTARLLAPSTLLEWHQVLSEHDGWLVVDEAFMDSTPEHSLAAYSHHSGLIILRSLGKFFGLAGARVGFVLAETPLLTRMADLLGPWAVTGPSSIVAQAALADHAWQQHHRAKLLAESRQLADMLRQAGLPARKGCALFQWLKLEHAERLHVQLARQGVWTRHFPALRGVRIGLPSADGWQKLAVALKELQLQDLSD", "soluble on expression in E. coli": "not soluble"}
{"sequence": "MGSDKIHHHHHHMLGINRKLEQLESDGTIIRVGLVGAGQMGRGMVSQIESMKGMRVVVTADIVLENVKLAYERAGVPKDEVIETDEISKAADAIQAGKVVATGDAELVTALSEVDVVVDATGIPNIGAKIAWDAILNKKHIVMLNVEADVTVGPLLKQMADACGVVYTGSAGDEPGAVMELYDFADALGFEVVALGKGKNNPLNVEANPQTAAEEAKRKGASPKMLASFQDGTKTMVEMTAVANATGFLPDKPGMNGFVGTVEELPAIFRRKEEGGQVENERIVEYINGVAPGVFAIVKSDKEEVNHEMTYLSMGEGPNYVLYRPYHLTSLETPISIARAHLYHEATIAPWQGLQAETVAVAKKDLAAGEFLDSIGGFTVYGTILTVTDAKEKGALPIGLVDAHVQVKRPIKKGEIITYDDVEQKKESTIWRLRRIQDETLVGKRELEAKV", "soluble on expression in E. coli": "not soluble"}
{"sequence": "MGSDKIHHHHHHMLKGIPHDSPLYEVDEDRGIEYRNCDAIVGFFTIKGDVSDLLPEGLKAYSKPAQGGIWISHYSFSTVGEYHEYLTVIQVEDEQGDMGYYIPYIYVTNDSALAAGRELAGAPKKLANIGLVKELDVVMGYLERPTGKRLVTFVMKPNTRALGGMIDFVLPKPTYLYSVRHLPPIKGKGGVTQLVKWYADIDFHVDPKGERAIFMGPGNITYDSPSVIDPVHKVEIDTLMTALYFQFDMKLGFVDILREY", "soluble on expression in E. coli": "not soluble"}
{"sequence": "MGSDKIHHHHHHMLKIELLESFIAVAECGNLSKAADKICRTQSTLSLQVKKLEESVGQTLLIRDNKGVTLTESGETLLNYAYKMMQLNSQAIDELKDCQNREVIRLGVPTDFIKCYLSSCLLEFIREFTSIELVIDTDVSGNLYKRLHQGEFDVIVATHWQVPTNGELLFTRRFKWVSAVEGNAHKRKTIPMGLYPENCPIRAQVFANHRLSMRPINVLLSTPSPQALCMAVENDLVIAPIAEFRITDQMQVLDPIEHGLPILPMFNESLYLNPDTQTYATLQLINLIKANVEHKGYQLD", "soluble on expression in E. coli": "not soluble"}
{"sequence": "MGSDKIHHHHHHMLKQKTLKDSFSLSGKGLHTGLDLTVTFNPAPDNHGYKIQRIDLEGQPTIDAVADNVTETTRGTVLSKNGVKVSTVEHGMAALYALGIDNCLIQVNGPEFPILDGSAQYYVQEIERVGTEEQSAVKDFYIIKSKIEFRDESTGSSIIVLPDENFSLNVLVSYDSTIIPNQFATLEDMHNFKDEVAASRTFVFVREIEPLLSAGLIKGGDLDNAIVIYERKMSQESYDKLADVMGVPHMDADQLGYINHKPLVWPNECARHKLLDVIGDLALIGKPIKGRIIATRPGHTINNKFARQMRKEIRLHEIQAPTYDCNREPVMDVNRIRELLPHRYPFQLVDKVIEMGASYIVGIKNITANEPFFQGHFPQEPVMPGVLQIEAMAQVGGLLVLNSVDEPERYSTYFMKIDGVKFRQKVVPGDTLLFRVELLAPIRRGISTMKGYAFVGEKVVCEAEFMAQIVKNK", "soluble on expression in E. coli": "not soluble"}
{"sequence": "MGSDKIHHHHHHMLLHSAWPRLLCPSPKAKHLKDPAMFELDHDLAQDIVDRAMAILPCNVNVMDSQGLILGSGEPERINTRHEGAQLVLANGRIVELDTDAAKCLKGVQPGVNLPLMLDGRLMGVLGLTGDPQQVRTYGELVRMTAEMLLAQRNLQADQQWRRQRCDDLLALLLGGSGNSPRLLDEARQLGLKPQLPRIPCLFEITSGPPAEALAAWLMSRYPDSWCVSPARQSLLWCRPAGVALDELRLLERLQRHGWDIERLALGSAAQSLEQLRRGYRRVRDLLAYGREVLPSERLLSLQRYRLPALLWRHRNDDALDELLEPLQRIRAKDSSGQLLATLRAWCAHDGQSQSCADALGIHRNSLRYRLERIAELGEVDPLRLEGMLSLYLGLQLLPTD", "soluble on expression in E. coli": "not soluble"}
{"sequence": "MGSDKIHHHHHHMLLTIDDVLTQEELAIARSMLARSAWVSGLVTAGTQAAQVKNNQQVQENDPQIVNLRRLVLGALNRNALFFTATLPEKIVPPFFNRYSGETNHYGFHVDNAMRLLPDGSGYVRTDVSATLFLSDPQEYDGGELVINDTFGQHGVKLQAGSMVIYPSSSIHQVTPVTRGERLACFMFIQSMVRNPDQRRLLYEMDMALLQLRQNIGETPAVVSLTGTYHNLLRQWADS", "soluble on expression in E. coli": "not soluble"}
{"sequence": "MGSDKIHHHHHHMLNRLRAFRERGWREVDAPTYAQAWQRFGGSVATHPLVVEQLAEMAGIPVRYLGWESAGELVAAIPTWGRHLALSKDVLKRRGKKGLYDLGNAELILPVAGDARIALRHAGRYLSALHERNIVTLRPQTEQLAFARAPEDFSKKFRYNQRREVRLVEEAGGQVRQADSFAPAEFAAIYLELFQRRWGFPATGAERMAEVFERLRELLRGSVLLLNDQPIAVQVLYRAEAPGWLSVEYINGGVDPQTREFSPGSVLSYLNTQAAWEDARALGKPLRYSFGRADREYKDRWCHPSPVFQV", "soluble on expression in E. coli": "not soluble"}
{"sequence": "MGSDKIHHHHHHMLPTLDGLPFHIAKAQGIYDSLGLDLTILSFNSAYDRDAAFQFKSMDGMITDYPSAVTLQAIHHTDLGIILKHDGYFCFIVSKESGINQLQELKEKNIAVSHNTIIEYATGQLLNKAGISQAEVNKPEIAQLPLRLQMLQYDQIDASFLPDPAASIAMNARHRSLISTQELGIDFTVTAFSREAINEKRREIELLITGYNLGIDYIKMHPQKEWKQVLIEIGVPENLTGLIALPVYRKAERPSADALDKAVTWLKTNNRIPQTYSGYKSLIDTTFIKTNSTTIK", "soluble on expression in E. coli": "not soluble"}
{"sequence": "MGSDKIHHHHHHMLQMIPARPSRALASLSEAYEECRQITARYAKTFYLGTLLMPEAKRQAIWAIYVWCRRTDELVDGPQAAQTNFATLDAWERRLERLFAGEPEDDCDVALVDTLARYPLDIQPFRDMIEGQRMDLLQNRYSTFEDLYTYCYRVAGTVGLMSQPVMGIESTNSRAPWDPTTPPDPTQEALALGIANQLTNILRDVGEDARRGRIYLPQEELAQFNYSEQDLFNGVIDDRWRAFMQFQLDRARDYFEQAERGIRQLSHDARWPVWASLMLYREILDVIEQNNYDVFRKRAYVPTWRKLCSLPVAMLRATVL", "soluble on expression in E. coli": "not soluble"}
{"sequence": "MGSDKIHHHHHHMLQNGYVPCSFRISMAGMDVEFNTKNDVIKAYLSRPDDGMRHPGIVVIHEIFGLDDHIRSVADRISREGYVALAPDLFSSHELSAKITREGILESMKFIMSIPPEKQRDDSYRNSLLNSMPEEKRRIMSSTYSALFVNRPTQLLTEYLEYAVDYLKGIGVTSVGSVGFCFGGGMSANLGCTGKVDATVIFYGENPDPIDKVKGMKSVLGLYAGEDHRITSRVPELLAKLIEFSIPVTIKVYPGAYHAFFNDTRPQIYNEAAAKDAWNMMLYFFRTQLGP", "soluble on expression in E. coli": "not soluble"}
{"sequence": "MGSDKIHHHHHHMLRVWVGSKPVGVLDRSGRRGSTFVYDVKADDRDAVSLTMPKRTESWNSEFGLLPIFDMNLPEGALEGKIRTAFAKALGHFDDLDLLAVVGRSQIGRIRFTGMDEELVEDVPFRSIDDLLRARRAGDLYNDLLETYAVHSGVAGVQPKVLVRAREDDPSDGRQSLSVRGATHIVKMWDPDEYPELAANEFFCLMAAQQVGLEVPDFRLSEDGLALVVERFDLTDGSYSGYEDFCALNGVTSKDKYNGGYETKLFKRIKEFVSPENAVGSLEVAFRLFVINCGIRNGDAHLKNFGVVYKDAESPVRLAPVYDLITTRAYIKNDAMALTLDGSTAWPDRKKLDRLGVTRANLRPGRVAEIVEQTCDALSDVSGRVKAYFEESSFPEVGEKMLREWQAGVGSLSEGKTIHLMEALDATSARND", "soluble on expression in E. coli": "not soluble"}
{"sequence": "MGSDKIHHHHHHMLSHRLQDTSLRYFLEVVRTGSLTEAAQRLNVTVSAVSRQVAALESWLGVPLFDRRPRGMVASAAGELLAAYALRNALEADRVVTEIDALQGLRRGRVRVASSAGFAIEFLPRAIADFRERYPGLHFHVRVAPPAEVTGIVLHGDADIGITYSRAAEQGIRVEHRQAAPVIAIMRPDHALARFRSITLSQMLPYPLALPEGDNTVRQLFDIACGERGVAFEPVLVSNQFETLTSFVLHGGGLSISGGVTVGDRLRRGELHAATIRERGMKSRAIELQTLAGRTLPEGVRTFLGFVRDRLVEEAGIGS", "soluble on expression in E. coli": "not soluble"}
{"sequence": "MGSDKIHHHHHHMLSIERQCQCMQLLIETFTVPIEIRALKTANIYRLETDDSAFLIDSGMSDNSIKSIEQNLKKIDFVFITHLHIDHLGGVLYLHEKYGIPAYMNHLDLDLIMNANEDRDGYIKRHSEIFRVNGVPPSMVEEIITMHPVIRYFDYYSKLDFVQDYRKINASGIKFVEVPGHSPGSTAVYIEDSRDLFAGDHILDRITPNIAVYGDEDDLGNYLESLEKVRAMKVDRIFPGHGNVITEPKIRIDDIEKHHHDRMRAIIAALKSPKTAYEVARDITWSKGRKMDTMNFMERNFAILETVSHLKHMDRKGMVRRIEENGIIKYSYIQ", "soluble on expression in E. coli": "not soluble"}
{"sequence": "MGSDKIHHHHHHMLSLKSEVLARHLPLFNGKSILLFGNVRDRFADQIRSISSHVAIFSHYFDYARHYNDVEFGLDCTTPANLGVFYWTKNKQECHYQLLQWLSQTAIGQQMLIIGENRAGVRSVEKLLSPFGQIAKIDSARRCGLYHFELQTIPQFDCQKFWKSYRLADLTVLSLPAAFSSTELDAGSQLLLSSFTNQDRLTGNVLDLGCGAGVIGAYLKQRFPAISLTMSDIHSMAIHSAQATLAKNKLTGTVIASDVFSHINDRFDLIVSNPPFHDDIDTAYHTVESLIMQAKNHLNYGGELRIVANAFLPYPDLLDKAFGSHQVVTKSNKFKVYSARV", "soluble on expression in E. coli": "not soluble"}
{"sequence": "MGSDKIHHHHHHMLSNLVSEFPQHEPRPANAPRALEGIRVVDFTHFIAGPFATMMLADMGAEVIKIEAPGRGDEFRYYPPAHPQDESIGAPYLWANRNKRSIALDLKHEDGRRIARELIATADVVAENFSTGVMERLGLGYEACRESNPELIYCSVSAYGREGAFADRLGFDPVAQAESGFVSMNGYPDRLGVRALSPVMDISTAMMASNAILGALVARERSGKGQAVEVSLFDNAVLMTGYATVQHLFTGDEPQRHGNTSPDTCPSGVFKASDGAFYINCGNNKIFHRLASQVLEMPELAADPVLADRNGRIARRDELFRILDEAFIRHPWAYWQQRMRAASIPCGEVRSVGEALRSAEARERKLVSRLEHPDLGWLPNISLPFRFSETPMEDPSPAPRIGEHSRDILTHVLGYEDDSASALLDSGVVYSSVEKARAG", "soluble on expression in E. coli": "not soluble"}
{"sequence": "MGSDKIHHHHHHMLSTGLYEDFPTLKMKINGKRIVYLDSAATTLKPKQVVKKLEEFYYNSYANVHRAVHTLAVRATTEFEETREEFAEFLGASPEEIIFTSGTTMAINLAVVSLLRSGILKEDDLVLVSLLEHHANFVPWLRLSKFHGYRIDFIRPSGRFGTLEMDDLLKHRDKNPKVVAITGLSNVTGQRIPVEELRNVFPNSIILLDGAQLIPHEPVKPKEIGVDFLAFSLHKMLGPTGVGVLYGKREVLEQMEPFLYGGEMIDRVSLEDVTFNELPYKFEAGTPNIADIVASREALRYLKETGFDSVHEKIEQLTQMALKEMMKIGGVEIYGPLDERQHGIVSFNVKGIHPHDVAHILDQEFGIAVRSGHHCAQPLMSILKEQSQIDFPNSTCRASFYIYNTEEDVKILVEGVKKVKEWFSR", "soluble on expression in E. coli": "not soluble"}
{"sequence": "MGSDKIHHHHHHMLSYYGRLSSEVYDIDKPIDHSFRDVEFYIDRLNLCRGHILEPATGTGRVLVPLLEKGFKVDGFDSSKDMLNICRDNCRKKGLNPKLFEAKMESFIQDTRYDAIIVPAGTFLLLHQRADSIRALQNFHKHLCTGGRLIIDILMQTDFSTGTVSTRTWVCSNGDLITLESKVVEVDYINQYTVSHNRYEKWREGVLIQTELERFPLRWYGLEEFKLILESTGFKDIVISSDYKFGQYPSNVKDVITFEAVAIN", "soluble on expression in E. coli": "not soluble"}
